From paper PMC2993962, “Identification of a Novel Binding Partner of Phospholipase Cβ1: Translin-Associated Factor X” (PLoS ONE, 2010)

B1: Gαq (natural protein, rat, UniProt P82471 1-359, looked up)
chain: MTLESIMACCLSEEAKEARRINDEIERQLRRDKRDARRELKLLLLGTGESGKSTFIKQMRIIHGSGYSDEDKRGFTKLVYQNIFTAMQAMVRAMDTLKIPYKYEHNKAHAQLVREVDVEKVSAFENPYVDAIKSLWNDPGIQECYDRRREYQLSDSTKYYLNDLDRVADPSYLPTQQDVLRVRVPTTGIIEYPFDLQSVIFRMVDVGGQRSERRKWIHCFENVTSIMFLVALSEYDQVLVESDNENRMEESKALFRTIITYPWFQNSSVILFLNKKDLLEEKIMYSHLVDYFPEYDGPQRDAQAAREFILKMFVDLNPDSDKIIYSHFTCATDTENIRFVFAAVKDTILQLNLKEYNLV
modifications: thiol-reactive probe CPM, ~1:1 probe:protein (in the binding titrations)
notes: G protein alpha subunit q (Gαq), rat; the nucleotide state is told by the assay; The sentence of the methods leaves open whether Gαq carried a His tag; also called CPM-Gαq(GTPγS); Gαq-GTPγS; source: Sf9 cells, purified
B2: His6-PLCβ1 (phospholipase Cβ1), full length enzyme (enzyme, rat, UniProt P10687 1-1216, looked up)
chain: MAGAQPGVHALQLKPVCVSDSLKKGTKFVKWDDDSTIVTPIILRTDPQGFFFYWTDQNKETELLDLSLVKDARCGKHAKAPKDPKLRELLDVGNIGHLEQRMITVVYGPDLVNISHLNLVAFQEEVAKEWTNEVFSLATNLLAQNMSRDAFLEKAYTKLKLQVTPEGRIPLKNIYRLFSADRKRVETALEACSLPSSRNDSIPQEDFTPDVYRVFLNNLCPRPEIDNIFSEFGAKSKPYLTVDQMMDFINLKQRDPRLNEILYPPLKQEQVQVLIEKYEPNSSLAKKGQMSVDGFMRYLSGEENGVVSPEKLDLNEDMSQPLSHYFINSSHNTYLTAGQLAGNSSVEMYRQVLLSGCRCVELDCWKGRTAEEEPVITHGFTMTTEISFKEVIEAIAECAFKTSPFPILLSFENHVDSPKQQAKMAEYCRLIFGDALLMEPLEKYPLESGVPLPSPMDLMYKILVKNKKKSHKSSEGSGKKKLSEQASNTYSDSSSVFEPSSPGAGEADTESDDDDDDDDCKKSSMDEGTAGSEAMATEEMSNLVNYIQPVKFESFETSKKRNKSFEMSSFVETKGLEQLTKSPVEFVEYNKMQLSRIYPKGTRVDSSNYMPQLFWNAGCQMVALNFQTVDLAMQINMGMYEYNGKSGYRLKPEFMRRPDKHFDPFTEGIVDGIVANTLSVKIISGQFLSDKKVGTYVEVDMFGLPVDTRRKAFKTKTSQGNAVNPVWEEEPIVFKKVVLPSLACLRIAAYEEGGKFIGHRILPVQAIRPGYHYICLRNERNQPLMLPAVFVYIEVKDYVPDTYADVIEALSNPIRYVNLMEQRAKQLAALTLEDEEEVKKEADPGETSSEAPSETRTTPAENGVNHTATLAPKPPSQAPHSQPAPGSVKAPAKTEDLIQSVLTEVEAQTIEELKQQKSFVKLQKKHYKEMKDLVKRHHKKTTELIKEHTTKYNEIQNDYLRRRAALEKSAKKDSKKKSEPSSPDHGSSAIEQDLAALDAEMTQKLIDLKDKQQQQLLNLRQEQYYSEKYQKREHIKLLIQKLTDVAEECQNNQLKKLKEICEKEKKELKKKMDKKRQEKITEAKSKDKSQMEEEKTEMIRSYIQEVVQYIKRLEEAQSKRQEKLVEKHKEIRQQILDEKPKLQMELEQEYQDKFKRLPLEILEFVQEAMKGKVSEDSNHGSAPPSLASDPAKVNLKSPSSEEVQGENAGREFDTPL
modifications: thiol-reactive probe CPM, ~1:1 probe:protein, in the titrations with TRAX (CPM-PLCβ1); unlabelled when added to CPM-Gαq
notes: phospholipase Cβ1, rat, full length enzyme; also called CPM-PLCβ1; His-tagged PLCβ1; source: Sf9 cells, purified

Legend:
Gαq [1] = biological target: Gαq (UniProt P21279); settings: cited from earlier work
[2] = biological target: B2; test: other fluorescence titration; 2 nM CPM-Gαq activated with GTPγS on large unilamellar vesicles of POPC:POPS:POPE (1:1:1); PLCβ1 added; without and with excess TRAX (300 nM in the text, 200 nM in the legend); settings: both partners purified
Gαq [3] = biological target: B1; test: as above; settings: both partners purified
[4] = biological target: B2; test: other fluorescence titration; 2 nM CPM-labelled PLCβ1 (full length or ΔC) in solution, unlabelled TRAX added stepwise; increase of CPM intensity (excitation 380 nm, emission 420-560 nm) fitted to a bimolecular dissociation constant; apparent; settings: both partners purified

PLCβ1 (from UniProt Q9NQ66)
Kd (Gαq [1]): 0.67 nM

B1
binding result [2]: binds

B2
fold reduction of binding affinity in the presence of excess TRAX (Gαq [3]): 3 fold

B3: His-tagged translin-associated factor X (TRAX) (natural protein, human, UniProt Q99598 1-290, looked up)
chain: MSNKEGSGGFRKRKHDNFPHNQRREGKDVNSSSPVMLAFKSFQQELDARHDKYERLVKLSRDITVESKRTIFLLHRITSAPDMEDILTESEIKLDGVRQKIFQVAQELSGEDMHQFHRAITTGLQEYVEAVSFQHFIKTRSLISMDEINKQLIFTTEDNGKENKTPSSDAQDKQFGTWRLRVTPVDYLLGVADLTGELMRMCINSVGNGDIDTPFEVSQFLRQVYDGFSFIGNTGPYEVSKKLYTLKQSLAKVENACYALKVRGSEIPKHMLADVFSVKTEMIDQEEGIS
notes: translin-associated factor X (TRAX), human cDNA from Open Biosystems cloned into pET32a; pET32a may also add thioredoxin and an S tag, depending on the cloning sites (surmise); source: Rosetta cells (pET32a), purified on a Ni-NTA column
Kd [4]: 8 nM
